Assay [1] deals with BTas-Y (bovine foamy virus transactivator Tas of clone pBS-BFV-Y, D108) (bovine foamy virus (BFV3026)). The assay is described as follows: cross-linking; lysates of transfected HEK293T cells (20 mM Tris-Cl pH 7.5, 150 mM EDTA, 0.5 mM Na3VO4, 1 % NP-40) mixed with 0.01 % glutaraldehyde in 20 mM triethanolamine pH 8.2, 10 mM NaCl, 30 min at room temperature; 12 % SDS-PAGE and immunoblot with anti-BTas. A general note: In western blotting, separated proteins are transferred to a membrane and probed.

Assay [2] deals with BTas-B (bovine foamy virus transactivator Tas of clone pBS-BFV-B, N108) (bovine foamy virus (BFV3026)). The description is as above.

The values below come from PMC4929722.

In general, stoichiometry N refers to the number of molecules, sites or subunits per partner or assembly.

The substance “BTas-Y (bovine foamy virus transactivator Tas of clone pBS-BFV-Y, D108) (natural protein)” had a stoichiometry N in assay [1] of 2. In the case of “BTas-B (bovine foamy virus transactivator Tas of clone pBS-BFV-B, N108) (natural protein)”, the stoichiometry N in assay [2] was determined as 2.
